Like-named read-outs stand apart in the source and are kept apart here. Positions of bridges follow the written chain, without caps; N, C: chain ends. Non-standard residues stand in square brackets, D forms with d. Cha = N[C@@H](CC1CCCCC1)C(=O)O
Experiments:
human MCH-1R [1] = molecular target: T1, human MCH-1R (human, UniProt Q99705 1-353); assay: cell-based or functional assay
human MCH-2R [2] = molecular target: T2, human MCH-2R (human, UniProt Q969V1 1-340); assay: cell-based or functional assay
T2 sequence (Q969V1 whole entry): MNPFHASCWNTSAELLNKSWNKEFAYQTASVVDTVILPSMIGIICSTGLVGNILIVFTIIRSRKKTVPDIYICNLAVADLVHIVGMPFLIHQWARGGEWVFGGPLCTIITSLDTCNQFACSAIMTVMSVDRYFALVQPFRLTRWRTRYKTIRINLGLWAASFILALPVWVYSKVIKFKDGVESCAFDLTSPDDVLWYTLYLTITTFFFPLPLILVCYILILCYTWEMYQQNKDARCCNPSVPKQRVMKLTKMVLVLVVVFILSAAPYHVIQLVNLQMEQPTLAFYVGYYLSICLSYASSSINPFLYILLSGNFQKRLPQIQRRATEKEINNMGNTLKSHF

human MCH-1R [3] = molecular target: T1, human MCH-1R; assay: ratio of the two SPA IC50s
human MCH-2R [4] = molecular target: T2, human MCH-2R; assay: SPA, displacement of [125I]-[Phe13,Tyr19]-hMCH, MCH-2R membranes
Method: (§1) After equilibrating at room temperature for 3 hours, the plates were read in a TopCount (Packard, Meriden, Conn.). IC₅₀ calculations were performed using Prism 3.0 (GraphPad. Software, San Diego, Calif.). The IC₅₀ values were measured in three different experiments.

human MCH-1R [5] = molecular target: T1, human MCH-1R; assay: SPA, displacement of [125I]-[Phe13,Tyr19]-hMCH, CHO/MCH-1R membranes
Method: as §1

human MCH-1R [6] = molecular target: T1, human MCH-1R; assay: cell-based or functional assay; remark: listed apart in the source
human MCH-2R [7] = molecular target: T2, human MCH-2R; assay: cell-based or functional assay; remark: listed apart in the source

T1 sequence (Q99705 whole entry): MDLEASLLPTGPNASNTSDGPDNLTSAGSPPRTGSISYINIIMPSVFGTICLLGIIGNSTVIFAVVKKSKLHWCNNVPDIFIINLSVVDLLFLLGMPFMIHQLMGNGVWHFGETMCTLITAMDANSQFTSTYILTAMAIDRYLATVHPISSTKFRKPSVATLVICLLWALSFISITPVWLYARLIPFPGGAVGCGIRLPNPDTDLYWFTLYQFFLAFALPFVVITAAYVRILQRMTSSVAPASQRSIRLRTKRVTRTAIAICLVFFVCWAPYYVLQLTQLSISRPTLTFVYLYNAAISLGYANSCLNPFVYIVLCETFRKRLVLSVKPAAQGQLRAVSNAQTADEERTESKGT

Binder	Activation %, aequorin bioluminescence (human MCH-1R [1]) [%]	Selectivity 2/1 (MCH-2R/MCH-1R EC50 activity ratio) (human MCH-1R [1]) [ratio]	Activation %, aequorin bioluminescence (human MCH-2R [2]) [%]	Selectivity 2/1 (MCH-2R/MCH-1R IC50 ratio) (human MCH-1R [3]) [ratio]	IC50 (human MCH-2R [4]) [nM]	IC50 (human MCH-1R [5]) [nM]	EC50, aequorin bioluminescence (human MCH-1R [1]) [nM]	EC50, aequorin bioluminescence (human MCH-2R [2]) [nM]	Activation %, aequorin bioluminescence (human MCH-1R [6]) [%]	Activation %, aequorin bioluminescence (human MCH-2R [7]) [%]
Ac-RCMLPRVYRPC-NH2 (disulfide 2-11 (inferred)) [SEQ. ID. NO. 22 (Pro^10 analog of Ac-hMCH(6-16)-NH2)]	10		13	5	3500	760	> 10000	> 10000		
Ac-RCMLRRVYRPC-NH2 (disulfide 2-11 (inferred)) [SEQ. ID. NO. 23 (Arg^10 analog of Ac-hMCH(6-16)-NH2)]	7		38	0.7	420	640	> 10000	1660		
Ac-RCMLKRVYRPC-NH2 (disulfide 2-11 (inferred)) [SEQ. ID. NO. 24 (Lys^10 analog of Ac-hMCH(6-16)-NH2)]	43	1	40	86	1460	17	5700	6050		
Ac-RCMLERVYRPC-NH2 (disulfide 2-11 (inferred), also called Glu^10 peptide) [SEQ. ID. NO. 28 (Glu^10 analog of Ac-hMCH(6-16)-NH2)]	21		22			290	> 10000	> 10000		
XCMLGRVYRPC (position 6 is Gva, des-amino-arginine (5-guanidinovaleric acid), no acetyl; C-terminal amide; disulfide cycle) [SEQ. ID. NO. 3 (Gva^6 analog of Ac-hMCH(6-16)-NH2)]									49	102

Continued by falling IC50 (human MCH-1R [5]), values first:

Activation %, aequorin bioluminescence (human MCH-1R [1]) [%]	Selectivity 2/1 (MCH-2R/MCH-1R EC50 activity ratio) (human MCH-1R [1]) [ratio]	Activation %, aequorin bioluminescence (human MCH-2R [2]) [%]	Selectivity 2/1 (MCH-2R/MCH-1R IC50 ratio) (human MCH-1R [3]) [ratio]	IC50 (human MCH-2R [4]) [nM]	IC50 (human MCH-1R [5]) [nM]	EC50, aequorin bioluminescence (human MCH-1R [1]) [nM]	EC50, aequorin bioluminescence (human MCH-2R [2]) [nM]	Activation %, aequorin bioluminescence (human MCH-1R [6]) [%]	Activation %, aequorin bioluminescence (human MCH-2R [7]) [%]	Binder
76	0.25	74	11	55	5	1200	300			Ac-RCML[Cha]RVYRPC-NH2 (disulfide 2-11) [SEQ. ID. NO. 19 (Cha^10 analog of Ac-hMCH(6-16)-NH2)]
7		105	14	18	1.3	> 10000	81			RCMLXRVYRPC (HELM PEPTIDE1{[ac].R.C.M.L.[O=C([C@H](Cc1ccc2ccccc2c1)N[*:1])[*:2]].R.V.Y.R.P.C.[am]}$PEPTIDE1,PEPTIDE1,3:R3-12:R3$$$V2.0; SMILES CSCC[C@@H]1NC(=O)[C@@H](NC(=O)[C@H](CCCNC(=N)N)NC(C)=O)CSSC[C@@H](C(N)=O)NC(=O)[C@@H]2CCCN2C(=O)[C@H](CCCNC(=N)N)NC(=O)[C@H](Cc2ccc(O)cc2)NC(=O)[C@H](C(C)C)NC(=O)[C@H](CCCNC(=N)N)NC(=O)[C@H](Cc2ccc3ccccc3c2)NC(=O)[C@H](CC(C)C)NC1=O) [SEQ. ID. NO. 21 (Nal(2′)^10 analog of Ac-hMCH(6-16)-NH2)]
120	0.7	87	100	55	0.54	130	89			Ac-RCMLSRVYRPC-NH2 (disulfide 2-11 (inferred), also called Ser^10 peptide) [SEQ. ID. NO. 26 (Ser^10 analog of Ac-hMCH(6-16)-NH2)]
126	4.7	86	1800	490	0.28	51	240			Ac-RCMLNRVYRPC-NH2 (disulfide 2-11 (inferred), also called Asn^10 peptide) [SEQ. ID. NO. 25 (Asn^10 analog of Ac-hMCH(6-16)-NH2)]
115	0.4	97	21	1.9	0.1					RCMLXRVYRPC (N-terminal acetyl; Nle (norleucine) at position 10; C-terminal amide; disulfide cycle) [SEQ. ID. NO. 18 (Nle^10 analog of Ac-hMCH(6-16)-NH2)]
75	0.75	88	19	1.9	0.1	66	50			Ac-RCMLFRVYRPC-NH2 (disulfide 2-11 (inferred)) [SEQ. ID. NO. 20 (Phe^10 analog of Ac-hMCH(6-16)-NH2)]

— patent publication US20050020492A1 (MERCK, published 2005)
